Experimental data from patent US20210069338A1.
Changes are numbered by the printed parent chain. Names may count otherwise. Blank lines part the entries; values can stand above or below the binder they belong to.

What was measured:
[1] = target: Ac-PYY(PEG3-Cys-4Abu-NH2) / Ac-IK(PEG3-Cys-4Abu-NH2)-Pqa-…-MeArg-Y-NH2; assay: mass spectrometry, non-haptenylated peptide 2.1:1 to antibody
[2] = target: Ac-PYY(PEG3-Cys-4Abu-Dig) / Ac-IK(PEG3-Cys-4Abu-Dig)-Pqa-…-MeArg-Y-NH2; assay: mass spectrometry of the covalent disulfide conjugate, 2:1 peptide to antibody, no redox agents
[3] = target: PEG3-PYY(PEG3-Cys-4Abu-Dig) / PEG3-IK(PEG3-Cys-4Abu-Dig)-Pqa-…-MeArg-Y-NH2; assay: mass spectrometry of the covalent disulfide conjugate, 2:1 peptide to antibody, 1 mM GSH / 5 mM GSSG
[4] = target: helicar motif amino acid sequence cysteine variant 2, …(5-Fluo)-OH x TFA; assay: covalent disulfide coupling, 2.5 molar excess of peptide
[5] = target: Ac-PYY(PEG3-Cys-PEG2-5-Fluo) / Ac-IK(PEG3-Cys-PEG2-5-Fluo)-Pqa-…-MeArg-Y-NH2; assay: mass spectrometry of the covalent disulfide conjugate, 2.5:1 peptide to antibody, no redox agents

% of detected species = antibody coupled to 1 peptide molecule [1]: 51%
% of detected species = antibody coupled to 2 peptide molecules [1]: 17%
% of detected species = uncoupled antibody [1]: 32%
% of detected species = antibody coupled to 1 peptide molecule [2]: 40%
% of detected species = antibody coupled to 2 peptide molecules [2]: 7.4%
% of detected species = uncoupled antibody [2]: 52%
% of detected species = antibody coupled to 1 peptide molecule [3]: 46%
% of detected species = antibody coupled to 2 peptide molecules [3]: 43%
% of detected species = uncoupled antibody [3]: 11%
B1: humanized anti-digoxigenin antibody VH52bC (antibody, from a related filing, V domains shown)
VH: QVQLVESGGGLVKPGGSLRLSCAASGFTFSDYAMSWIRQAPGKGLEWVSSINICATYIYYADSVKGRFTISRDNAKNSLYLQMNSLRAEDTAVYYCARPGSPYEYDKAYYSMAYWGQGTTVTVSS
VL: DIQMTQSPSSLSASVGDRVTITCRASQDIKNYLNWYQQKPGKAPKLLIYYSSTLLSGVPSRFSGSGSGTDFTLTISSLQPEDFATYYCQQSITLPPTFGCGTKVEIK

% of detected species = uncoupled antibody [1]: 100%
B2: humanized anti-digoxigenin antibody (antibody, from a related filing, V domains shown)
VH: B1 VH with C54G
VL: B1 VL with C100G

% of antibody covalently conjugated to one helicar motif amino acid sequence [4]: 40%
% of antibody covalently conjugated to two helicar motif amino acid sequences [4]: 43%
% of antibody not conjugated [4]: 17%
B3: anti-helicar motif amino acid sequence antibody (0155), light chain variable domain N55C variant (antibody, V domains shown)
V domain 1: QAVVTQEPSLTVSPGGTVTLTCGSSTGAVTTSNYASWVQQKPGQAFTGLIGGTNNRAPWTPARFSGSLLGGKAALTLSGAQPEDEAEYYCALWYSNHWVFGGGTKLTVL
V domain 2: DAVVTQESALTTSPGETVTLTCRSSTGAVTTSNYASWVQEKPDHLFTGLIGGTNCRAPGVPARFSGSLIGDKAALTITGAQTEDEAIYFCALWYSNHWVFGGGTKLTVL

% of detected species = antibody coupled to 1 peptide molecule [5]: 5%
% of detected species = antibody coupled to 2 peptide molecules [5]: 95%
B4: anti-fluorescein antibody VH52bC (antibody, V domains shown)
VH: GVKLDETGGGLVQPGGAMKLSCVTSGFTFGHYWMNWVRQSPEKGLEWVAQFRNCPYNYETYYSDSVKGRFTISRDDSKSSVYLQMNNLRVEDTGIYYCTGASYGMEYLGQGTSVTVSS
VL: DVVMTQTPLSLPVSLGDQASISCRSSQSLVHSNGNTYLRWYLQKPGQSPKVLIYKVSNRVSGVPDRFSGSGSGTDFTLKINRVEAEDLGVYFCSQSTHVPWTFGGGTKLEIK

% of detected species = antibody coupled to 2 peptide molecules [5]: 100%
B5: anti-fluorescein antibody VH28C (antibody, from a related filing, V domains shown, part only)
VH: B4 VH with T28C, C54K
VL: B4 VL
